{"source": "paper PMC2150586", "about": "(The Journal of Cell Biology, 1999)", "binders": {"B1": {"name": "HASte4p purified from yeast (from HASte4-(TEV)-protein A, released with TEV protease) (natural protein)", "chain": "MAAHQMDSITYSNNVTQQYIQPQSLQDISAVEDEIQNKIEAARQESKQLHAQINKAKHKIQDASLFQMANKVTSLTKNKINLKPNIVLKGHNNKISDFRWSRDSKRILSASQDGFMLIWDSASGLKQNAIPLDSQWVLSCAISPSSTLVASAGLNNNCTIYRVSKENRVAQNVASIFKGHTCYISDIEFTDNAHILTASGDMTCALWDIPKAKRVREYSDHLGDVLALAIPEEPNSENSSNTFASCGSDGYTYIWDSRSPSAVQSFYVNDSDINALRFFKDGMSIVAGSDNGAINMYDLRSDCSIATFSLFRGYEERTPTPTYMAANMEYNTAQSPQTLKSTSSSYLDNQGVVSLDFSASGRLMYSCYTDIGCVVWDVLKGEIVGKLEGHGGRVTGVRSSPDGLAVCTGSWDSTMKIWSPGYQ"}}, "key": {"[1]": {"biological_target": "T1, GSTCdc24–MBPFar1 complex, isolated by sequential purification on amylose and glutathione resin (S. cerevisiae, UniProt P11433;P21268)", "T1 sequence 1": "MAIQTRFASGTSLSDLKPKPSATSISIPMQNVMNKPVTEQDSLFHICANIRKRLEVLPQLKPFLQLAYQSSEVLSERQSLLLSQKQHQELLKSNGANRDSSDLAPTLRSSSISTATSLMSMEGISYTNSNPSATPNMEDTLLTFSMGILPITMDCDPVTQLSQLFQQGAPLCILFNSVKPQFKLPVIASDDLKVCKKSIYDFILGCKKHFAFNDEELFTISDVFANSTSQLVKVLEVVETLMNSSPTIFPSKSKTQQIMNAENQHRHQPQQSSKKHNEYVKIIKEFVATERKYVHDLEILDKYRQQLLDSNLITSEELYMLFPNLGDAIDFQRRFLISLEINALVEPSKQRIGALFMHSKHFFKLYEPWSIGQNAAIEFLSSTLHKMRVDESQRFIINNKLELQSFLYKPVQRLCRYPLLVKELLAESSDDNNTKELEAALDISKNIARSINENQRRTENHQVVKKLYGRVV", "T1 sequence 2": "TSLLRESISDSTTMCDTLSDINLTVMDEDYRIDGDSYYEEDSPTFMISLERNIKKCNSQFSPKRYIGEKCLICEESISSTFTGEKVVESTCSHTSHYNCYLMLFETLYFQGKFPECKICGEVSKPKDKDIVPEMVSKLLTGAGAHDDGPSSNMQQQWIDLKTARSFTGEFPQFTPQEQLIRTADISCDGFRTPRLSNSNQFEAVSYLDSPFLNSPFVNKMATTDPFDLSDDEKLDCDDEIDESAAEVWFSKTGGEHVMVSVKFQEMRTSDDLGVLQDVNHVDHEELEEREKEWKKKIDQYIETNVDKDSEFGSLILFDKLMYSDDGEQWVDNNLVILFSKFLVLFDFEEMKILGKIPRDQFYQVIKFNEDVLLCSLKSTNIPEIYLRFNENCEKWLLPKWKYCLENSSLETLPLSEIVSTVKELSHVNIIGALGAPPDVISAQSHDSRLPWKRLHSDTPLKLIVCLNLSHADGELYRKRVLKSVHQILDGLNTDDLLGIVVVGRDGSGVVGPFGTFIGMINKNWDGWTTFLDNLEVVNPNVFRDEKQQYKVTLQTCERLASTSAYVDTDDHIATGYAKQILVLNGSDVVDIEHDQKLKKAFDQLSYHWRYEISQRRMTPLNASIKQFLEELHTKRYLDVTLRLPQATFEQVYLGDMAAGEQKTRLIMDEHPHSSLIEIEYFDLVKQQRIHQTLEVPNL", "assay": "pull-down"}, "[2]": {"biological_target": "T2, GSTCdc24 (NH2-terminal 472 amino acids of Cdc24p fused to GST) (S. cerevisiae, UniProt P11433 1-472)", "T2 sequence": "T1 sequence 1", "assay": "pull-down"}}}
{"binder": "B1", "values": [{"measurement": "fold HASte4p bound against a similar amount of GSTCdc24 alone", "setting": "[1]", "result": 2, "unit": "fold"}, {"measurement": "fold increase of HASte4p bound when MBPFar1 is added", "setting": "[2]", "result": "~2", "unit": "fold"}]}
